Data: US20210107988A1 (Genmab, published 2021)

Tests used:
Assay in all cases: FcγR ELISA, 20 µg/mL antibody
[1] = molecular target: T1, dimeric, His-tagged, C-terminally biotinylated ECD of FcγRIIA allotype 131H (Homo sapiens (Human), UniProt P12318 34-215, C-terminally biotinylated)
T1 sequence: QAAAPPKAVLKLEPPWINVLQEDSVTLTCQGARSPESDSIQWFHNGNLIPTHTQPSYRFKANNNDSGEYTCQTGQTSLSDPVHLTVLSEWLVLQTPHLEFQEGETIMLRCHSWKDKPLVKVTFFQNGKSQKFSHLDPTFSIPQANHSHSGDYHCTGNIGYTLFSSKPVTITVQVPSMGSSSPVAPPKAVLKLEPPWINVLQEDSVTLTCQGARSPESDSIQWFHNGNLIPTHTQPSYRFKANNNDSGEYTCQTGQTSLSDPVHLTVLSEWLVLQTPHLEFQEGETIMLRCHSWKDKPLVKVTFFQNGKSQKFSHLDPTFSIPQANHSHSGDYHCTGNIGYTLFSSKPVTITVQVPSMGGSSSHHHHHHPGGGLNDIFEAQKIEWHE

[2] = molecular target: T2, dimeric, His-tagged, C-terminally biotinylated ECD of FcγRIIA allotype 131R (Homo sapiens (Human), UniProt P12318 36-215, C-terminally biotinylated)
T2 chain: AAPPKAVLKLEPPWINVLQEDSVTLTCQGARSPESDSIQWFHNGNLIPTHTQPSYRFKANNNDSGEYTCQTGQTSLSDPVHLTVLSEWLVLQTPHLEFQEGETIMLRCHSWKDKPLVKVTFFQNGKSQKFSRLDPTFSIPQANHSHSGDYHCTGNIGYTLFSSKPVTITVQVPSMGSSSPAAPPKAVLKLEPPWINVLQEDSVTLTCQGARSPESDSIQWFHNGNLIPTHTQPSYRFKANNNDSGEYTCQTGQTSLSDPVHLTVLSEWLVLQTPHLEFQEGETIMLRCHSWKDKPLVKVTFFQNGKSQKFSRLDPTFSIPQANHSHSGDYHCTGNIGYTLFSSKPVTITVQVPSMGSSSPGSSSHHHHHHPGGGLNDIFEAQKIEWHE

[3] = molecular target: T3, dimeric, His-tagged, C-terminally biotinylated ECD of FcγRIIB (Homo sapiens (Human), UniProt P31994 44-223, C-terminally biotinylated)
T3 construct: also called diFCGR2B-HisBAP
T3 sequence: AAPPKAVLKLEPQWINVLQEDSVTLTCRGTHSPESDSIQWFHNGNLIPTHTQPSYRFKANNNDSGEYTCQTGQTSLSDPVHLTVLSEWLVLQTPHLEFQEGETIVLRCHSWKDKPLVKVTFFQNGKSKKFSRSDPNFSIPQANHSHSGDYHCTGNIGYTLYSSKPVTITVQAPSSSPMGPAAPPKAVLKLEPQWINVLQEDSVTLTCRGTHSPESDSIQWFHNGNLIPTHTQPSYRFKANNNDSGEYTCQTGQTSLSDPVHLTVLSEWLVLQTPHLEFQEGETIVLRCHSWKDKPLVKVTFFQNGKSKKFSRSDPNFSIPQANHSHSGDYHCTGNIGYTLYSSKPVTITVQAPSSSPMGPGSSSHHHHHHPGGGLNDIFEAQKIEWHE

Measured: binding result

B1: IgG1-CAMPATH-1H-E430G-K439E-Q438N (antibody)
heavy: QVQLQESGPGLVRPSQTLSLTCTVSGFTFTDFYMNWVRQPPGRGLEWIGFIRDKAKGYTTEYNPSVKGRVTMLVDTSKNQFSLRLSSVTAADTAVYYCAREGHTAAPFDYWGQGSLVTVSSASTKGPSVFPLAPSSKSTSGGTAALGCLVKDYFPEPVTVSWNSGALTSGVHTFPAVLQSSGLYSLSSVVTVPSSSLGTQTYICNVNHKPSNTKVDKRVEPKSCDKTHTCPPCPAPELLGGPSVFLFPPKPKDTLMISRTPEVTCVVVDVSHEDPEVKFNWYVDGVEVHNAKTKPREEQYNSTYRVVSVLTVLHQDWLNGKEYKCKVSNKALPAPIEKTISKAKGQPREPQVYTLPPSREEMTKNQVSLTCLVKGFYPSDIAVEWESNGQPENNYKTTPPVLDSDGSFFLYSKLTVDKSRWQQGNVFSCSVMHGALHNHYTNESLSLSPGK
light: not shown
notes: also called IgG1-Campath-E430G Q438N/K439E
binds: all assays above

B2: IgG1-CAMPATH-1H-E430G-K439E-Q438R (antibody)
heavy: QVQLQESGPGLVRPSQTLSLTCTVSGFTFTDFYMNWVRQPPGRGLEWIGFIRDKAKGYTTEYNPSVKGRVTMLVDTSKNQFSLRLSSVTAADTAVYYCAREGHTAAPFDYWGQGSLVTVSSASTKGPSVFPLAPSSKSTSGGTAALGCLVKDYFPEPVTVSWNSGALTSGVHTFPAVLQSSGLYSLSSVVTVPSSSLGTQTYICNVNHKPSNTKVDKRVEPKSCDKTHTCPPCPAPELLGGPSVFLFPPKPKDTLMISRTPEVTCVVVDVSHEDPEVKFNWYVDGVEVHNAKTKPREEQYNSTYRVVSVLTVLHQDWLNGKEYKCKVSNKALPAPIEKTISKAKGQPREPQVYTLPPSREEMTKNQVSLTCLVKGFYPSDIAVEWESNGQPENNYKTTPPVLDSDGSFFLYSKLTVDKSRWQQGNVFSCSVMHGALHNHYTRESLSLSPGK
light: not shown
binds: all assays above

B3: IgG1-CAMPATH-1H-E430G-K439E-Y436N (antibody)
heavy: QVQLQESGPGLVRPSQTLSLTCTVSGFTFTDFYMNWVRQPPGRGLEWIGFIRDKAKGYTTEYNPSVKGRVTMLVDTSKNQFSLRLSSVTAADTAVYYCAREGHTAAPFDYWGQGSLVTVSSASTKGPSVFPLAPSSKSTSGGTAALGCLVKDYFPEPVTVSWNSGALTSGVHTFPAVLQSSGLYSLSSVVTVPSSSLGTQTYICNVNHKPSNTKVDKRVEPKSCDKTHTCPPCPAPELLGGPSVFLFPPKPKDTLMISRTPEVTCVVVDVSHEDPEVKFNWYVDGVEVHNAKTKPREEQYNSTYRVVSVLTVLHQDWLNGKEYKCKVSNKALPAPIEKTISKAKGQPREPQVYTLPPSREEMTKNQVSLTCLVKGFYPSDIAVEWESNGQPENNYKTTPPVLDSDGSFFLYSKLTVDKSRWQQGNVFSCSVMHGALHNHNTQESLSLSPGK
light: not shown
notes: also called IgG1-Campath-E430G Y436N/K439E
binds: all assays above

B4: IgG1-CAMPATH-1H-E430G-K439E-Y436K (antibody)
heavy: QVQLQESGPGLVRPSQTLSLTCTVSGFTFTDFYMNWVRQPPGRGLEWIGFIRDKAKGYTTEYNPSVKGRVTMLVDTSKNQFSLRLSSVTAADTAVYYCAREGHTAAPFDYWGQGSLVTVSSASTKGPSVFPLAPSSKSTSGGTAALGCLVKDYFPEPVTVSWNSGALTSGVHTFPAVLQSSGLYSLSSVVTVPSSSLGTQTYICNVNHKPSNTKVDKRVEPKSCDKTHTCPPCPAPELLGGPSVFLFPPKPKDTLMISRTPEVTCVVVDVSHEDPEVKFNWYVDGVEVHNAKTKPREEQYNSTYRVVSVLTVLHQDWLNGKEYKCKVSNKALPAPIEKTISKAKGQPREPQVYTLPPSREEMTKNQVSLTCLVKGFYPSDIAVEWESNGQPENNYKTTPPVLDSDGSFFLYSKLTVDKSRWQQGNVFSCSVMHGALHNHKTQESLSLSPGK
light: not shown
binds: all assays above

B5: IgG1-CAMPATH-1H-E430G-S440K-Q438R (antibody)
heavy: QVQLQESGPGLVRPSQTLSLTCTVSGFTFTDFYMNWVRQPPGRGLEWIGFIRDKAKGYTTEYNPSVKGRVTMLVDTSKNQFSLRLSSVTAADTAVYYCAREGHTAAPFDYWGQGSLVTVSSASTKGPSVFPLAPSSKSTSGGTAALGCLVKDYFPEPVTVSWNSGALTSGVHTFPAVLQSSGLYSLSSVVTVPSSSLGTQTYICNVNHKPSNTKVDKRVEPKSCDKTHTCPPCPAPELLGGPSVFLFPPKPKDTLMISRTPEVTCVVVDVSHEDPEVKFNWYVDGVEVHNAKTKPREEQYNSTYRVVSVLTVLHQDWLNGKEYKCKVSNKALPAPIEKTISKAKGQPREPQVYTLPPSREEMTKNQVSLTCLVKGFYPSDIAVEWESNGQPENNYKTTPPVLDSDGSFFLYSKLTVDKSRWQQGNVFSCSVMHGALHNHYTRKKLSLSPGK
light: not shown
notes: also called IgG1-Campath-E430G Q438R/S440K
binds: all assays above

B6: IgG1-CAMPATH-1H-E430G-S440K-Q438N (antibody)
heavy: QVQLQESGPGLVRPSQTLSLTCTVSGFTFTDFYMNWVRQPPGRGLEWIGFIRDKAKGYTTEYNPSVKGRVTMLVDTSKNQFSLRLSSVTAADTAVYYCAREGHTAAPFDYWGQGSLVTVSSASTKGPSVFPLAPSSKSTSGGTAALGCLVKDYFPEPVTVSWNSGALTSGVHTFPAVLQSSGLYSLSSVVTVPSSSLGTQTYICNVNHKPSNTKVDKRVEPKSCDKTHTCPPCPAPELLGGPSVFLFPPKPKDTLMISRTPEVTCVVVDVSHEDPEVKFNWYVDGVEVHNAKTKPREEQYNSTYRVVSVLTVLHQDWLNGKEYKCKVSNKALPAPIEKTISKAKGQPREPQVYTLPPSREEMTKNQVSLTCLVKGFYPSDIAVEWESNGQPENNYKTTPPVLDSDGSFFLYSKLTVDKSRWQQGNVFSCSVMHGALHNHYTNKKLSLSPGK
light: not shown
binds: all assays above

B7: IgG1-CAMPATH-1H-E430G-S440K-Y436N (antibody)
heavy: QVQLQESGPGLVRPSQTLSLTCTVSGFTFTDFYMNWVRQPPGRGLEWIGFIRDKAKGYTTEYNPSVKGRVTMLVDTSKNQFSLRLSSVTAADTAVYYCAREGHTAAPFDYWGQGSLVTVSSASTKGPSVFPLAPSSKSTSGGTAALGCLVKDYFPEPVTVSWNSGALTSGVHTFPAVLQSSGLYSLSSVVTVPSSSLGTQTYICNVNHKPSNTKVDKRVEPKSCDKTHTCPPCPAPELLGGPSVFLFPPKPKDTLMISRTPEVTCVVVDVSHEDPEVKFNWYVDGVEVHNAKTKPREEQYNSTYRVVSVLTVLHQDWLNGKEYKCKVSNKALPAPIEKTISKAKGQPREPQVYTLPPSREEMTKNQVSLTCLVKGFYPSDIAVEWESNGQPENNYKTTPPVLDSDGSFFLYSKLTVDKSRWQQGNVFSCSVMHGALHNHNTQKKLSLSPGK
light: not shown
binds: all assays above

B8: IgG1-CAMPATH-1H-E430G-S440K-Y436K (antibody)
heavy: QVQLQESGPGLVRPSQTLSLTCTVSGFTFTDFYMNWVRQPPGRGLEWIGFIRDKAKGYTTEYNPSVKGRVTMLVDTSKNQFSLRLSSVTAADTAVYYCAREGHTAAPFDYWGQGSLVTVSSASTKGPSVFPLAPSSKSTSGGTAALGCLVKDYFPEPVTVSWNSGALTSGVHTFPAVLQSSGLYSLSSVVTVPSSSLGTQTYICNVNHKPSNTKVDKRVEPKSCDKTHTCPPCPAPELLGGPSVFLFPPKPKDTLMISRTPEVTCVVVDVSHEDPEVKFNWYVDGVEVHNAKTKPREEQYNSTYRVVSVLTVLHQDWLNGKEYKCKVSNKALPAPIEKTISKAKGQPREPQVYTLPPSREEMTKNQVSLTCLVKGFYPSDIAVEWESNGQPENNYKTTPPVLDSDGSFFLYSKLTVDKSRWQQGNVFSCSVMHGALHNHKTQKKLSLSPGK
light: not shown
notes: also called IgG1-Campath-E430G Y436K/S440K
binds: all assays above
